± gives the standard deviation.
Assay: protein stability index of a GFP-peptide fusion (GPS, HEK-293T) (PSI 1-6); higher = more stable
[1] = treatment: DMSO, c terminus: a fixed tail appended
[2] = treatment: MLN4924 1 uM, 8 h, c terminus: a fixed tail appended
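Note: 24-mer peptide tiles fused after GFP, lentivirally expressed, FACS-sorted into six equal bins by GFP/DsRed ratio, decoded by Illumina sequencing, PSI is the read-weighted mean bin number.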

Sequence: RYLAVLESPIPEDKDRRFVFSYFL [EFHC1]
- protein stability index [1]: 2.37 ± 0.38
- protein stability index [2]: 2.25 ± 0.85

Sequence: EFEAVVRQAELAIERCIFPERIYQ [PI4K2A]
- protein stability index [1]: 2.43 ± 0.37
- protein stability index [2]: 2.33 ± 0.41

Sequence: PGNLEKNRYGDVPCLDQTRVKLTK [PTPN9]
- protein stability index [2]: 4.32 ± 0.72

Sequence: HLNGHAMCQTKHSPWADGTPCGPA [ADAMTS4]
- protein stability index [1]: 3.12 ± 0.35
- protein stability index [2]: 3.11 ± 0.22

Sequence: LVPETEDDRKLAALLKFHTLDSYE [YJU2B]
- protein stability index [1]: 3.62 ± 0.34
- protein stability index [2]: 3.58 ± 0.22

Sequence: GEGNSSQNSRNKRAVQGPEETVTQ [TNFSF13B]
- protein stability index [1]: 5.51 ± 0.2
- protein stability index [2]: 5.47 ± 0.096

Sequence: AHAVLGQHSHVVRYFSAWAEDDHM [WEE1]
- protein stability index [1]: 3.55 ± 0.43
- protein stability index [2]: 3.71 ± 0.057

Sequence: LSRKKRLELDDNLDTERPVQKRAR [TRIB3]
- protein stability index [1]: 4.79 ± 0.14
- protein stability index [2]: 4.62 ± 0.37

Sequence: FLHLRTHTEERPYECNHCGKGFRH [ZNF8]
- protein stability index [1]: 2.79 ± 0.34
- protein stability index [2]: 2.97 ± 0.36

Sequence: FEPRLLVQSIELQRPRFITSGGSN [VPS39]
- protein stability index [1]: 2.88 ± 0.3
- protein stability index [2]: 2.9 ± 0.21

Sequence: AFHINKGLVKKYMNSLLIGELSPE [FADS1]
- protein stability index [1]: 2.45 ± 0.47
- protein stability index [2]: 2.32 ± 0.26

Sequence: GWLQHDFGHLSVFSTSKWNHLLHH [FADS1]
- protein stability index [1]: 2.04 ± 0.44
- protein stability index [2]: 2.19 ± 0.29

Sequence: RTTVHDKSAHQTHSSWTPPNAQYW [DNAJC4]
- protein stability index [1]: 2.99 ± 0.32
- protein stability index [2]: 3.02 ± 0.33

Sequence: CQGQRLFEKLLQLTSQNIEIKLVS [PLD5]
- protein stability index [1]: 2.35 ± 0.19
- protein stability index [2]: 2.29 ± 1.3

Sequence: GMFTFLSSVTAAVSGLLVGYELGI [SLC2A12]
- protein stability index [1]: 2.891 ± 0.011
- protein stability index [2]: 2.75 ± 0.86

Sequence: GRLEGLIQPDDLINQLTFIMDANQ [FAF2]
- protein stability index [1]: 2.8 ± 0.2
- protein stability index [2]: 2.77 ± 0.5

Sequence: TRLQDCYVDSPALTNIWMARTCAK [C22orf31]
- protein stability index [1]: 2.47 ± 0.2
- protein stability index [2]: 2.69 ± 0.11

Sequence: MLQIVVGVRDSGSPPLHANTSLHV [PCDHGC5]
- protein stability index [1]: 2.6 ± 0.47
- protein stability index [2]: 2.91 ± 0.72

Sequence: SQENSINPIQKEEDEGVDLSEGSS [SPANXN3]
- protein stability index [1]: 5.5 ± 0.2
- protein stability index [2]: 5.64 ± 0.084

Sequence: FGGVLEYFMIQALNQKTSEKMKKR [RHOBTB3]
- protein stability index [1]: 2.14 ± 0.66
- protein stability index [2]: 2.24 ± 0.25

Sequence: FHLDVEDYLSGVLILASELSRLSV [TSN]
- protein stability index [1]: 3.06 ± 0.74
- protein stability index [2]: 3.04 ± 0.48

Sequence: LDEIPDDEDLDLIPPKSVNPTCMC [FAM219A]
- protein stability index [1]: 5.07 ± 0.16
- protein stability index [2]: 5.16 ± 0.31

Sequence: CWDMYRHDIDCQWVDITDVPPGDY [LOXL2]
- protein stability index [1]: 2.7 ± 0.36
- protein stability index [2]: 3.11 ± 0.3

Sequence: KVVQSLLNHGASVNNTTLTNSTPL [FEM1C]
- protein stability index [1]: 2.77 ± 0.21
- protein stability index [2]: 2.83 ± 0.24

Sequence: SAGRSMPEASDQEEHLSPLDFLHS [RNF180]
- protein stability index [1]: 5.07 ± 0.12
- protein stability index [2]: 4.88 ± 0.28

Sequence: HVPLLAEPSFAQFSQEIGLASLGA [TPH1]
- protein stability index [1]: 2.93 ± 0.26
- protein stability index [2]: 3.09 ± 0.12

Sequence: SKVLSLQDLCCRTIVSCTPVHLVD [RAB40A]
- protein stability index [1]: 3.08 ± 0.27
- protein stability index [2]: 2.98 ± 0.31

Sequence: FSDHTFRHYAYLRDSLSHLVPALR [INTS4]
- protein stability index [1]: 2.27 ± 0.18
- protein stability index [2]: 2.36 ± 0.2

Sequence: WKNTKKMGVGKASASDGSSFVVAR [GLIPR2]
- protein stability index [1]: 3.64 ± 0.27
- protein stability index [2]: 3.71 ± 0.3

Sequence: EFVVRCFACPSQALFFKNIMNIID [KCNA4]
- protein stability index [1]: 2.4 ± 0.78
- protein stability index [2]: 2.12 ± 0.55

Sequence: PREALSRLQELCHGWLRPEMRTKE [ZNF263]
- protein stability index [1]: 3.31 ± 0.23
- protein stability index [2]: 3.55 ± 0.28

Sequence: TVEDLFYNIATRRKALKNPSEEYG [MLH1]
- protein stability index [1]: 3.02 ± 0.8
- protein stability index [2]: 3.06 ± 0.1

Sequence: VWVLMDEDVRIFFYQSPYDSEQVP [NCF4]
- protein stability index [1]: 2.3 ± 0.71
- protein stability index [2]: 2.33 ± 0.64

Sequence: YKVKERLGTLKNPPKKKMKLMSG [LCOR]
- protein stability index (treatment: DMSO, c terminus: native): 2.51 ± 0.41
- protein stability index (treatment: MLN4924 1 uM, 8 h, c terminus: native): 3.27 ± 0.068

Sequence: PTGDVLLDEALKHVKETQPPETVQ [GOLPH3]
- protein stability index [1]: 5.32 ± 0.1
- protein stability index [2]: 5.21 ± 0.1

Sequence: VNMYVSIVFFGLISFDRYYKIVKP [P2RY14]
- protein stability index [1]: 3.66 ± 0.41
- protein stability index [2]: 3.06 ± 0.28

Sequence: MLSIFYFAIPVGSGLGYIAGSKVK [SPNS1]
- protein stability index [1]: 2.83 ± 0.34
- protein stability index [2]: 3.05 ± 0.4

Sequence: FTKVVQPQEEIATKKLRLTKPSKS [INTS4]
- protein stability index [1]: 3.92 ± 0.57
- protein stability index [2]: 4.07 ± 0.3

Sequence: LGNVAEVKELRPQLMTSQFISVFS [ZER1]
- protein stability index [1]: 2.55 ± 0.3
- protein stability index [2]: 2.34 ± 0.28

Sequence: AGYEVDKIAQNLDFVNLMAYDFHG [CHIT1]
- protein stability index [1]: 2.28 ± 0.41
- protein stability index [2]: 2.36 ± 0.19

Sequence: KGAAAAAAASGAAGGGGGGAGAGA [INTS3]
- protein stability index [1]: 5.26 ± 0.42
- protein stability index [2]: 5.3 ± 0.27

Sequence: MVHQRKLEAELLQIEERHQEKKRK [SMARCE1]
- protein stability index [1]: 4.58 ± 0.34
- protein stability index [2]: 4.36 ± 0.32

Sequence: GASTSCLLPVQVVTEHPLELIRVE [PCDHGC5]
- protein stability index [1]: 3.12 ± 0.62
- protein stability index [2]: 3.29 ± 0.37

Sequence: FIQKRCNSLLEEETILHFFVQILL [NEK8]
- protein stability index [1]: 2.41 ± 0.36
- protein stability index [2]: 2.28 ± 0.47

Source: the supplement of paper PMC10567573
